In this assay the test system is NCI-H460-CLDN18.2 xenograft tumor. The experiment in a line: NCI-H460-CLDN18.2 and hPBMC co-inoculation xenograft tumor model. The class given is in vivo, NOD-SCID mice. Conditions: 10 mg/kg each antibody, i.p. twice a week for 5 weeks. From the text:
NCI-H460-CLDN18.2 was purchased from Kyinno (Cat #, KC-1450), which was stablely transfected with human CLDN18.2 expression. The tumor cells were routinely sub-cultured twice weekly by trypsin-EDTA treatment (Hyclone). The cells growing in an exponential growth phase were harvested and counted for tumor inoculation. Female SPF grade NOD-SCID mice were inoculated with 3×10^6 NCI-H460-CLDN18.2 cells and 1.5×10^6 human PBMC along with 50% matrigel. Animal were selected and randomized to 4 groups (n=10), approximately 4 hours post inoculation. Animals were then treated with 10 mg/kg Isotype control, 10 mg/kg anti-CLDN18.2 antibody 18B10, 10 mg/kg anti-PD-L1 antibody AM4B6, 10 mg/kg anti-CLDN18.2 antibody 18B10 and 10 mg/kg anti-PD-L1 antibody AM4B6 twice a week for 5 weeks by i.p. injection. Tumor size was measured twice or triple times a week in two dimensions using a caliper (INSIZE) and the volume was expressed in mm^3 using the formula: V=0.5 a×b^2 where a and b are the long and short diameters of the tumor, respectively. Results were analyzed using Prism GraphPad and expressed as mean±S.E.M. Comparisons between two groups were made by T-test, and the difference is considered significant if p is *<0.05 and **<0.01.

Data on one molecule can be found in US20250326834A1, “COMBINATION THERAPY OF CLAUDIN 18.2 ANTAGONIST AND PD-1/PD-L1 AXIS INHIBITOR” (SUZHOU TRANSCENTA THERAPEUTICS CO., LTD., priority 2021, published 2025).

B1: AM4B6: anti-PD-L1 antibody; VH SEQ ID NO: 17, VL SEQ ID NO: 18 (antibody, V domains shown)
VH: QVQLVQSGAEVKKPGASVKVSCKASGYVFTDYYMNWVRQAPGQSLEWMGDINPNNAETLYNHKFKGRVTVTVDKSISTAYMELSRLRSDDTAVYYCVKWGDGPFAYWGQGTLVTVSS
VL: DIQMTQSPSSLSASVGDRVTITCKASQNVGAAVAWYQQKPGKAPKLLIYSVSDRYTGVPSRFSGSGSGTDFTLTISSLQPEDIATYYCQQYSNYPTFGQGTKLEIK
Broadly, the TGI is how far tumour growth fell short of that in controls. A higher TGI goes with much slowing of growth. Consider B1, for which the “effect on tumor growth compared with isotype control” value is listed as “no significant impact on tumor growth”. Moreover, the TGI (Day 29) was 17.6%. Under “Day 29, mean ± S.E.M.”, this molecule showed a Tumor size of 557.06 ± 67.47 mm^3.
